Results published in paper PMC11428423 (2024).

T1: MT-C34 peptide conjugated to bovine serum albumin (BSA-MT-C34 conjugate) (HIV-1, covalently conjugated to bovine serum albumin by the sulfo-SMCC linker)
T1 chain: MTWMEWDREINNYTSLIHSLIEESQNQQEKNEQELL

B1: C24-6 mouse monoclonal antibody against the MT-C34 peptide (mAb) (antibody, V domains shown)
VH: EVQLVESGGDLVKPGGSLKLSCAASGFTFSRFGMSWGRQTPDKRLEWVATISTGGSYTYYPDSVKGRFTISRDNAKNSLYLQMSSLKSEDTAMYYCARHDDTAVYAMDYWGQGTSVTVSS
VL: DVVMTQTPLSLPVSLGDQASISCRSSQSLVHSDGDTYLHWYLQKPGQSPKLLIYKVSNRFSGVPDRFSGSGSGTDFTLKISRAEAEDLGVYFCSQSTHVPLTFGAGTKLELK
B2: human chimeric anti-MT-C34 antibody (chAb) (antibody, V domains shown)
VH: EVQLVESGGDLVKPGGSLKLSCAASGFTFSRFGMSWGRQTPDKRLEWVATISTGGSYTYYPDSVKGRFTISRDNAKNSLYLQMSSLKSEDTAMYYCARHDDTAVYAMDYWGQGTSVTVSS
VL: DVVMTQTPLSLPVSLGDQASISCRSSQSLVHSDGDTYLHWYLQKPGQSPKLLIYKVSNRFSGVPDRFSGSGSGTDFTLKISRAEAEDLGVYFCSQSTHVPLTFGAGTKLELK

Assays:
[1] = biological target: T1, MT-C34 peptide conjugated to bovine …; experiment: ELISA; replicate mAb-3, slope x 10^-8 M
[2] = biological target: T1, MT-C34 peptide conjugated to bovine …; experiment: ELISA; replicate chAb-1, slope x 10^-8 M

| Binder | Kd [1] | Kd [2] |
| --- | --- | --- |
| B1 | 2.26 nM |  |
| B2 |  | 1.14 nM |
